Test results from patent US20080003614A1 (University of Texas, published 2008).

Tests used:
RIP1 = biological target: T1, RIP1 (UniProt Q13546 1-671, limits assumed); assay: co-immunoprecipitation with MAVS antibody, overexpression in HEK293 cells (FIG. 12A)
T1 construct: also called RIPI
T1 sequence (looked up): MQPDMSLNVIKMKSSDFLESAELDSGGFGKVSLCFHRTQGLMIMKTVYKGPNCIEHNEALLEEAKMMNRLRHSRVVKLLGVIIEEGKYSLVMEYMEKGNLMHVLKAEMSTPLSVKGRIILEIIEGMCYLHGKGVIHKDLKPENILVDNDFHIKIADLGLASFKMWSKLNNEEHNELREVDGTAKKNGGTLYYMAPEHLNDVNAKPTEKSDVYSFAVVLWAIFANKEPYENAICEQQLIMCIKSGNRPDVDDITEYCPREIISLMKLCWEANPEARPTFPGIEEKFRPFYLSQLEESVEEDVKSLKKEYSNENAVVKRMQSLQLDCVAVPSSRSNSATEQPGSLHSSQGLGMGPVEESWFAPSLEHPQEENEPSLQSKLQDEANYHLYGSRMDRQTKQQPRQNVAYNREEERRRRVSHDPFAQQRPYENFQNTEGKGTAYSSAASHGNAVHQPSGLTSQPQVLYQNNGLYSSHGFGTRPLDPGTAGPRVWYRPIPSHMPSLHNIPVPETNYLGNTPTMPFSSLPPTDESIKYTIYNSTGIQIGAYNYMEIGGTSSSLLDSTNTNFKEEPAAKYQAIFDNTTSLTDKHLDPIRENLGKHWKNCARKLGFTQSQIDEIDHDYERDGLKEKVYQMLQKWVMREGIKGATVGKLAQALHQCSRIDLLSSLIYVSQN
Experimental: (§1) (FIG. 12A) Expression vectors encoding HA-MAVS and the indicated FLAG-tagged proteins were co-transfected into HEK293 cells. 36 hours after transfection, cells were lysed in a buffer containing 0.5% Triton-X100 and 150 mM NaCl, and the proteins associated with MAVS were co-immunoprecipitated with the polyclonal antibodies against MAVS or control IgG. After washing three times with a buffer containing 0.1% Triton-X100 and 150 mM NaCl, the immunoprecipitated beads were resuspended in SDS sample buffer, and the eluted proteins immunoblotted with an antibody against FLAG or HA as indicated. Lysate represents 10% of the starting materials used for immunoprecipitation.

FADD = biological target: T2, FADD (UniProt Q13158 1-208, limits assumed); assay: as above
T2 sequence (looked up): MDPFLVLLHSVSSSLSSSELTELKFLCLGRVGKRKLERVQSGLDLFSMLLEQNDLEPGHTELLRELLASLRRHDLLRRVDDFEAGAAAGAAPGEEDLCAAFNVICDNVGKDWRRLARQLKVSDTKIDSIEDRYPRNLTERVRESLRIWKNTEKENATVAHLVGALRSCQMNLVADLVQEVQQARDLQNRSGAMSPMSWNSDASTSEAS
Experimental: as §1

B1: HA-MAVS (N-terminal HA-tagged Mitochondrial Anti-Viral Signaling protein) (other)
chain: MPFAEDKTYKYICRNFSNFCNVDVVEILPYLPCLTARDQDRLRATCTLSGNRDTLWHLFNTLQRRPGWVEYFIAALRGCELVDLADEVASVYESYQPRTSDRPPDPLEPPSLPAERPGPPTPAAAHSIPYNSCREKEPSYPMPVQETQAPESPGENSEQALQTLSPRAIPRNPDGGPLESSSDLAALSPLTSSGHQEKDTELGSTHTAGATSSLTPSRGPVSPSVSFQPLARSTPRASRLPGPTGSVVSTGTSFSSSSPGLASAGAAEGKQGAESDQAEPIICSSGAEAPANSLPSKVPTTLMPVNTVALKVPANPASVSTVPSKLPTSSKPPGAVPSNALTNPAPSKLPINSTRAGMVPSKVPTSMVLTKVSASTVPTDGSSRNEETPAAPTPAGATGGSSAWLDSSFENRGLGSELSKPGVLASQVDSPFSGCFEDLAISASTSLGMGPCHGPEENEYKSEGTFGIHVAENPSIQLLEGNPGPPADPDGGPRPQADRKFQEREVPCHRPSPGALWLQVAVTGVLVVTLLVVLYRRRLH
notes: also called KIAA1271; pEF-HA-MAVS; not shown: N-terminal HA tag
- binding result (RIP1): no binding
- binding result (FADD): no binding
